In US20230118307A1, “THERAPEUTIC USE OF LONG-ACTING CONJUGATE OF TRIPLE AGONIST HAVING ACTIVITIES TO ALL OF GLUCAGON/GLP-1/GIP RECEPTORS FOR LUNG DISEASE” (HANMI PHARM. CO., LTD., priority 2020, published 2023):
Positions of bridges follow the written chain, without caps; N, C: chain ends. Non-standard residues stand in square brackets, D forms with d. No end group written: not given here. *: point of attachment. Acetyl(2-(4-imidazolyl)) = O=C(Cc1c[nH]cn1)*; Aib = CC(C)(N)C(=O)O

T1: human GIP receptor (human, UniProt P48546 22-466)
T1 sequence (looked up): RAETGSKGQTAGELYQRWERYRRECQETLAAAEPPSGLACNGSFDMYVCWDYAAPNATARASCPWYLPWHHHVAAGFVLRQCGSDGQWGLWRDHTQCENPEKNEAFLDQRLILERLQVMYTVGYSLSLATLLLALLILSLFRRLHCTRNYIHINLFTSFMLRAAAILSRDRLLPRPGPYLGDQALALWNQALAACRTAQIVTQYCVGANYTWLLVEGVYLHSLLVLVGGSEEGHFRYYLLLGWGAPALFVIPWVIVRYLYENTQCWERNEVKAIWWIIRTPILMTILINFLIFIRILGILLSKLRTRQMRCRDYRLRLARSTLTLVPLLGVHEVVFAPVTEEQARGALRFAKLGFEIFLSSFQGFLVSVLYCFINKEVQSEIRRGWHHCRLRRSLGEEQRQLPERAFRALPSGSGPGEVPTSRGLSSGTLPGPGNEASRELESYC


molecular target: human GCG receptor (human, UniProt P47871 26-477); experiment: cell-based or functional assay
Sequence (P47871 26-477): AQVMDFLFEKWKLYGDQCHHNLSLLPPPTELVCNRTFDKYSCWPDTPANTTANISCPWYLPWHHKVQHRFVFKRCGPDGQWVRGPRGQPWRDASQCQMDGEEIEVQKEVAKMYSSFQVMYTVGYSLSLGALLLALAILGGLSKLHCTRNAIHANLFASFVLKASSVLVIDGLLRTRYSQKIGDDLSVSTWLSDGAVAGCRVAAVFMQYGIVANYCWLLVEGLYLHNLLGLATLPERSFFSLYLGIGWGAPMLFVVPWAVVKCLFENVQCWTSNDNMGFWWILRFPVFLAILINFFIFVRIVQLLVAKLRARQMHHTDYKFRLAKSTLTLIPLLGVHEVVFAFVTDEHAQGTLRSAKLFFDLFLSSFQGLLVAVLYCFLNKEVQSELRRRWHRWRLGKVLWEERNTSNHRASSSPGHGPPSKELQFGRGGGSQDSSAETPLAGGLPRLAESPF

| Binder | In vitro Activity Compared to Native Peptide (%) vs. Glucagon [%] |
| --- | --- |
| [Acetyl(2-(4-imidazolyl))][Aib]QGTFTSDYSKYLDEKRQKEFVNWLLAQKC (bridge 16-20) [triple agonist of SEQ ID NO: 93] | 0.3 |
| [Acetyl(2-(4-imidazolyl))]GEGTFISDYSIQLDEIAVQDFVEWLLAQKPSSGAPPPSHG [triple agonist of SEQ ID NO: 13] | < 0.1 |
| Y[Aib]QGTFTSDYSKCLDEKRAKEFVQWLLDHHPSSGQPPPS (bridge 16-20) [triple agonist of SEQ ID NO: 22] | 140 |
| Y[Aib]QGTFTSDYSKALDEKAAKEFVQWLLDQHPSSGQPPPSC (bridge 16-20) [triple agonist of SEQ ID NO: 100] | 12.7 |
| [Acetyl(2-(4-imidazolyl))][Aib]EGTFTSDYSIAMDEIHQKDFVDWLLAEKC (bridge 16-20) [triple agonist of SEQ ID NO: 91] | 16.8 |
| Y[Aib]QGTFTSDYSKYLDECRAKEFVQWLLDHHPSSGQPPPS (bridge 16-20) [triple agonist of SEQ ID NO: 21] | 267 |
| [Acetyl(2-(4-imidazolyl))][Aib]QGTFTSDYSIAMDEIHQKDFVNWLLNTC (bridge 16-20) [triple agonist of SEQ ID NO: 87] | < 0.1 |
| [Acetyl(2-(4-imidazolyl))]GQGTFTSDYSIQLDEIAVRDFVEWLKNGGPSSGAPPPSHG [triple agonist of SEQ ID NO: 14] | < 0.1 |
| Y[Aib]QGTFTSDYSKALDEKAAKDFVNWLLDHHPSSGQPPPSC (bridge 16-20) [triple agonist of SEQ ID NO: 99] | 14.9 |
| [Acetyl(2-(4-imidazolyl))]GQGTFTSDLSKQMDSERAREFIEWLKNTGPSSGAPPPSHG [triple agonist of SEQ ID NO: 18] | < 0.1 |
| [Acetyl(2-(4-imidazolyl))]GEGTFTSDLSKYLDSRRQQLFVQWLKAGGPSSGAPPPSHG [triple agonist of SEQ ID NO: 11] | < 0.1 |
| H[Aib]QGTFTSDVSKYLDGQAAQEFVAWLLAGGGPSSGAPPPSC [triple agonist of SEQ ID NO: 10] | < 0.1 |
| Y[Aib]QGTFTSDYSKALDEKAAKEFVNWLLDQHPSSGQPPPSC (bridge 16-20) [triple agonist of SEQ ID NO: 101] | 13.9 |
| [Acetyl(2-(4-imidazolyl))][Aib]QGTFTSDYSIAMDEIHQKDFVNWLLAQKC (bridge 16-20) [triple agonist of SEQ ID NO: 92] | < 0.1 |
| [Acetyl(2-(4-imidazolyl))][Aib]QGTFTSDYSKYLDEKRQKEFVQWLLNTKC (bridge 16-20) [triple agonist of SEQ ID NO: 88] | 0.3 |

molecular target: T1, human GIP receptor; experiment: cell-based or functional assay

| Binder | In vitro Activity Compared to Native Peptide (%) vs. GIP [%] |
| --- | --- |
| [Acetyl(2-(4-imidazolyl))][Aib]QGTFTSDYSKYLDEKRQKEFVNWLLAQKC (bridge 16-20) [triple agonist of SEQ ID NO: 93] | 0.7 |
| [Acetyl(2-(4-imidazolyl))]GEGTFISDYSIQLDEIAVQDFVEWLLAQKPSSGAPPPSHG [triple agonist of SEQ ID NO: 13] | < 0.1 |
| Y[Aib]QGTFTSDYSKCLDEKRAKEFVQWLLDHHPSSGQPPPS (bridge 16-20) [triple agonist of SEQ ID NO: 22] | 59.7 |
| Y[Aib]QGTFTSDYSKALDEKAAKEFVQWLLDQHPSSGQPPPSC (bridge 16-20) [triple agonist of SEQ ID NO: 100] | 118 |
| [Acetyl(2-(4-imidazolyl))][Aib]EGTFTSDYSIAMDEIHQKDFVDWLLAEKC (bridge 16-20) [triple agonist of SEQ ID NO: 91] | 0.3 |
| Y[Aib]QGTFTSDYSKYLDECRAKEFVQWLLDHHPSSGQPPPS (bridge 16-20) [triple agonist of SEQ ID NO: 21] | 22.7 |
| [Acetyl(2-(4-imidazolyl))][Aib]QGTFTSDYSIAMDEIHQKDFVNWLLNTC (bridge 16-20) [triple agonist of SEQ ID NO: 87] | < 0.1 |
| [Acetyl(2-(4-imidazolyl))]GQGTFTSDYSIQLDEIAVRDFVEWLKNGGPSSGAPPPSHG [triple agonist of SEQ ID NO: 14] | < 0.1 |
| Y[Aib]QGTFTSDYSKALDEKAAKDFVNWLLDHHPSSGQPPPSC (bridge 16-20) [triple agonist of SEQ ID NO: 99] | 57.7 |
| [Acetyl(2-(4-imidazolyl))]GQGTFTSDLSKQMDSERAREFIEWLKNTGPSSGAPPPSHG [triple agonist of SEQ ID NO: 18] | < 0.1 |
| [Acetyl(2-(4-imidazolyl))]GEGTFTSDLSKYLDSRRQQLFVQWLKAGGPSSGAPPPSHG [triple agonist of SEQ ID NO: 11] | < 0.1 |
| H[Aib]QGTFTSDVSKYLDGQAAQEFVAWLLAGGGPSSGAPPPSC [triple agonist of SEQ ID NO: 10] | < 0.1 |
| Y[Aib]QGTFTSDYSKALDEKAAKEFVNWLLDQHPSSGQPPPSC (bridge 16-20) [triple agonist of SEQ ID NO: 101] | 40.1 |
| [Acetyl(2-(4-imidazolyl))][Aib]QGTFTSDYSIAMDEIHQKDFVNWLLAQKC (bridge 16-20) [triple agonist of SEQ ID NO: 92] | 0.4 |
| [Acetyl(2-(4-imidazolyl))][Aib]QGTFTSDYSKYLDEKRQKEFVQWLLNTKC (bridge 16-20) [triple agonist of SEQ ID NO: 88] | < 0.1 |

molecular target: human GLP-1 receptor (human, UniProt P43220 24-463); experiment: cell-based or functional assay

| Binder | In vitro Activity Compared to Native Peptide (%) vs. GLP-1 [%] |
| --- | --- |
| [Acetyl(2-(4-imidazolyl))][Aib]QGTFTSDYSKYLDEKRQKEFVNWLLAQKC (bridge 16-20) [triple agonist of SEQ ID NO: 93] | 5.7 |
| [Acetyl(2-(4-imidazolyl))]GEGTFISDYSIQLDEIAVQDFVEWLLAQKPSSGAPPPSHG [triple agonist of SEQ ID NO: 13] | < 0.1 |
| Y[Aib]QGTFTSDYSKCLDEKRAKEFVQWLLDHHPSSGQPPPS (bridge 16-20) [triple agonist of SEQ ID NO: 22] | 20.1 |
| Y[Aib]QGTFTSDYSKALDEKAAKEFVQWLLDQHPSSGQPPPSC (bridge 16-20) [triple agonist of SEQ ID NO: 100] | 42.2 |
| [Acetyl(2-(4-imidazolyl))][Aib]EGTFTSDYSIAMDEIHQKDFVDWLLAEKC (bridge 16-20) [triple agonist of SEQ ID NO: 91] | 31.9 |
| Y[Aib]QGTFTSDYSKYLDECRAKEFVQWLLDHHPSSGQPPPS (bridge 16-20) [triple agonist of SEQ ID NO: 21] | 17.8 |
| [Acetyl(2-(4-imidazolyl))][Aib]QGTFTSDYSIAMDEIHQKDFVNWLLNTC (bridge 16-20) [triple agonist of SEQ ID NO: 87] | 0.9 |
| [Acetyl(2-(4-imidazolyl))]GQGTFTSDYSIQLDEIAVRDFVEWLKNGGPSSGAPPPSHG [triple agonist of SEQ ID NO: 14] | 28 |
| Y[Aib]QGTFTSDYSKALDEKAAKDFVNWLLDHHPSSGQPPPSC (bridge 16-20) [triple agonist of SEQ ID NO: 99] | 20.9 |
| [Acetyl(2-(4-imidazolyl))]GQGTFTSDLSKQMDSERAREFIEWLKNTGPSSGAPPPSHG [triple agonist of SEQ ID NO: 18] | < 0.1 |
| [Acetyl(2-(4-imidazolyl))]GEGTFTSDLSKYLDSRRQQLFVQWLKAGGPSSGAPPPSHG [triple agonist of SEQ ID NO: 11] | 1.4 |
| H[Aib]QGTFTSDVSKYLDGQAAQEFVAWLLAGGGPSSGAPPPSC [triple agonist of SEQ ID NO: 10] | 46 |
| Y[Aib]QGTFTSDYSKALDEKAAKEFVNWLLDQHPSSGQPPPSC (bridge 16-20) [triple agonist of SEQ ID NO: 101] | 23.2 |
| [Acetyl(2-(4-imidazolyl))][Aib]QGTFTSDYSIAMDEIHQKDFVNWLLAQKC (bridge 16-20) [triple agonist of SEQ ID NO: 92] | 0.8 |
| [Acetyl(2-(4-imidazolyl))][Aib]QGTFTSDYSKYLDEKRQKEFVQWLLNTKC (bridge 16-20) [triple agonist of SEQ ID NO: 88] | 9.6 |
